No end group written: not given here.
Columns and labels:
[1] = Stability of non-covalent association, release of FITC-labelled GFR-binding compound from carrier; assay type: physicochemical; settings: SEQ ID NO: 9 with apatite ceramics, SEQ ID NO: 10 with type-I collagen sponge; after 3, 7 or 10 days
Procedure: Non-covalent associations of the bioactive carriers were performed under atmospheric conditions (air) at room temperature (about 22° C.). The non-covalent association was carried out using a mixture of GFR-binding compound of SEQ ID NO: 9 (concentration of 1×10^−3 M) with the apatite ceramics or a mixture of GFR-binding compound of SEQ ID NO: 10 (concentration of 1×10^−3M) with the type-I collagen sponge. The non-covalent pharmaceutical associations were characterized by covalently associating fluorescent GFR-binding compounds of SEQ ID NO: 9 and 10 (covalently bound to fluorescein isothiocyanate (FITC), FIG. 1).

[2] = tested on: neoplastic cells (osteosarcoma cells); assay: Immunofluorescence visualization (actin, vinculin, DAPI) of neoplastic cells on grafted polymer scaffold, 24 hours; assay type: cell-based; settings: polymer scaffold covalently modified with mixture of GFR-binding compound and RGD peptide; 24 hours of culture
Procedure: FIG. 12 is (a) a representation of a Quantitative Real Time PCR analysis of the expression of DMP-1, SCT and RANK-L in neoplastic cells (osteosarcoma cells) cultured on a native polymer scaffold (control) and on a polymer scaffold grafted with a mixture comprising a GFR-binding compound as defined in the present disclosure and a RGD peptide, after 24 hours of culture, (b) immunofluorescence staining of a representative neoplastic cell (osteosarcoma cells) cultured on a polymer scaffold grafted with a mixture comprising a GFR-binding compound as defined in the present disclosure (ID SEQ NO: 2) and a RGD peptide, after 24 hours of culture. The actin filaments were immunostained by using Alexa 488-phalloidin. The focal adhesions were represented by immunostaining with anti-vinculin. The nucleus was stained with DAPI and is represented by a circle in the center of the cell. Scale bar: 5 μm. (c) is a diagram representing the grafting density of a radiolabeled GFR-binding compound as defined in the present disclosure covalently grafted on a polymer scaffold and of a radiolabeled GFR-binding compound and a non-labeled RGD peptide both grafted on a polymer scaffold. The measurements were performed by using radioactivity quantification (no significant difference was observed). […]

| Substance | release of GFR-binding compound from non-covalent association [1] | Morphology of neoplastic cells by immunofluorescence visualization [2] |
| --- | --- | --- |
| SEQ ID NO: 9: GFR-binding compound non-covalently associated with apatite ceramics; sequence only in the sequence listing (RNVQCRPTQVQLSAISTLYLEIVRKKPLKNYQTLEDH; non-covalently associated with apatite ceramics; Non-cyclic GFR-binding peptide) | no significant release | – |
| SEQ ID NO: 10: GFR-binding compound non-covalently associated with type-I collagen sponge; sequence only in the sequence listing (PSSAPTQLSATSVLYYDDSSNVILRKHR; not fully specified) | no significant release | – |
| SEQ ID NO: 2: a GFR-binding compound as defined in the present disclosure, grafted on a polymer scaffold in a mixture with a RGD peptide (KVGKASSVPTKLSAISTLYLDDMGVPTLKNYQNMVVRASGSH; also: grafted on polymer scaffold in mixture with RGD peptide) | – | Spheroid-like structures of neoplastic cells become predominant |

— US20190224279A1, “PHARMACEUTICAL ASSOCIATION COMPRISING A GROWTH FACTOR RECEPTOR AGONIST CONJUGATED TO A BIOACTIVE CARRIER FOR CONVERTING A NEOPLASTIC CELL INTO A NON-NEOPLASTIC CELL AND USES THEREOF” (HISTIDE AG, priority 2015, published 2019)
